Laboratory results from PMC3162888.

Substrate: N=C(N)NCCCC(NC(=O)c1ccccc1)C(=O)Nc1ccc([N+](=O)[O-])cc1
Assay: purified protein
Details: 20 mM TRIS-HCl, 10 mM CaCl2, pH 8.0, 24°C

Protein | Km (20 nM enzyme) [µM] | kcat (20 nM enzyme) [s⁻¹] | kcat/Km (20 nM enzyme) [M⁻¹ s⁻¹] | Km (50 nM enzyme) [µM] | kcat (50 nM enzyme) [s⁻¹] | kcat/Km (50 nM enzyme) [M⁻¹ s⁻¹]
AaET (Aedes aegypti) (protein) IVGGFQIDIAEVPHQVSLQRSGRHFCGGSIISPRWVLTAAHCTTNTDPAAYTIRAGSTDRTNGGIIVKVKSVIPHPQYNGDTYNYDFSLLELDESIGFSRSIEAIALPEASETVADGAMCTVSGWGDTKNVFEMNTLLRAVNVPSYNQAECAAALVNVVPVTEQMICAGYAAGGKDSCQGDSGGPLVSGDKLVGVVSWGKGCALPNLPGVYARVSTVRQWIREVSEV | 63.0 ± 1.3 | 2.03 | 32300 |  |  | 
AaSPVII (Aedes aegypti) (protein) VVGGYEVDVKDIPFQVSLQNTYGHFCGGSIISERWVLTAGHCASPRDHGLKVRVGSSQHASGGQLYKVAKIHQHPQYNPSTIDYDFCLLELEKAITFSEVSQSVDLPKLNDPVQDGTLLQVSGWGYTQNPSESRDVLRATNVPAVSQKECSRAYQGTNAVTDRMVCAGYKEGGKDSCQGDSGGPLVEGNTLVGVVSWGVGCAQAGYPGVYSRVAAVRDWVAEVSGV |  |  |  | 19.2 ± 1.0 | 0.35 | 18500
